Reference: the supplement of paper PMC7125110
Variants at the floor of the assay were thinned out.

B1: glmS ribozyme (parent)
chain: AUAAAAGCGCCAGAACUACAGAAAUGUAGUUGACGAGGAGGAGGUUUAUCGAAUUUUCGGCGGAUGCCUCCAAA

How the values were obtained:
Details in all cases: with glucosamine-6-phosphate
[1] = variants of: B1; experiment: self-cleavage kobs at 40 uM GlcN6P; higher = faster cleavage; RNA array
Outline: (§1)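 A hybridised Cy3 probe tracked barcoded ribozyme variants, transcribed in situ by E. coli RNA polymerase on sequenced MiSeq chips, at 37 °C. The variants received 40 μM to 10 mM glucosamine-6-phosphate in HEPES/KCl/Mg(OAc)2 buffer. kobs came from decay fits and kcat and KM from weighted Michaelis–Menten fits.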

[2] = variants of: B1; experiment: self-cleavage kobs at 160 uM GlcN6P; higher = faster cleavage; RNA array
Outline: as §1

[3] = variants of: B1; experiment: self-cleavage kobs at 640 uM GlcN6P; higher = faster cleavage; RNA array
Outline: as §1

[4] = variants of: B1; experiment: self-cleavage kobs at 10000 uM GlcN6P; higher = faster cleavage; RNA array
Outline: as §1

[5] = variants of: B1; experiment: self-cleavage kobs at 2500 uM GlcN6P; higher = faster cleavage; RNA array
Outline: as §1

G7U U54C
< 1e-05 s⁻¹: self-cleavage kobs at 40 uM GlcN6P [1] | self-cleavage kobs at 160 uM GlcN6P [2] | self-cleavage kobs at 640 uM GlcN6P [3] | self-cleavage kobs at 10000 uM GlcN6P [4]

G7C G35A
< 1e-05 s⁻¹: self-cleavage kobs at 40 uM GlcN6P [1] | self-cleavage kobs at 640 uM GlcN6P [3] | self-cleavage kobs at 2500 uM GlcN6P [5] | self-cleavage kobs at 10000 uM GlcN6P [4]

G7C G29U G32U A64C
< 1e-05 s⁻¹: self-cleavage kobs at 40 uM GlcN6P [1]

A6U G7U A15U U30G G40A
< 1e-05 s⁻¹: self-cleavage kobs at 40 uM GlcN6P [1] | self-cleavage kobs at 10000 uM GlcN6P [4]

G7C G51U
< 1e-05 s⁻¹: self-cleavage kobs at 40 uM GlcN6P [1] | self-cleavage kobs at 160 uM GlcN6P [2] | self-cleavage kobs at 640 uM GlcN6P [3] | self-cleavage kobs at 2500 uM GlcN6P [5] | self-cleavage kobs at 10000 uM GlcN6P [4]

G7U G9C
< 1e-05 s⁻¹: self-cleavage kobs at 40 uM GlcN6P [1] | self-cleavage kobs at 160 uM GlcN6P [2] | self-cleavage kobs at 640 uM GlcN6P [3] | self-cleavage kobs at 2500 uM GlcN6P [5] | self-cleavage kobs at 10000 uM GlcN6P [4]

G7C C11G G51A
< 1e-05 s⁻¹: self-cleavage kobs at 40 uM GlcN6P [1] | self-cleavage kobs at 10000 uM GlcN6P [4]

A6G U57A
< 1e-05 s⁻¹: self-cleavage kobs at 40 uM GlcN6P [1] | self-cleavage kobs at 160 uM GlcN6P [2] | self-cleavage kobs at 640 uM GlcN6P [3]

A6G U57G
< 1e-05 s⁻¹: self-cleavage kobs at 40 uM GlcN6P [1] | self-cleavage kobs at 160 uM GlcN6P [2] | self-cleavage kobs at 640 uM GlcN6P [3] | self-cleavage kobs at 2500 uM GlcN6P [5] | self-cleavage kobs at 10000 uM GlcN6P [4]

G7U C10A G60U
< 1e-05 s⁻¹: self-cleavage kobs at 40 uM GlcN6P [1] | self-cleavage kobs at 160 uM GlcN6P [2] | self-cleavage kobs at 2500 uM GlcN6P [5]

C8A A14G
< 1e-05 s⁻¹: self-cleavage kobs at 40 uM GlcN6P [1] | self-cleavage kobs at 640 uM GlcN6P [3]

A6U C34U
< 1e-05 s⁻¹: self-cleavage kobs at 40 uM GlcN6P [1] | self-cleavage kobs at 160 uM GlcN6P [2] | self-cleavage kobs at 640 uM GlcN6P [3] | self-cleavage kobs at 10000 uM GlcN6P [4]

A6U C34A
< 1e-05 s⁻¹: self-cleavage kobs at 40 uM GlcN6P [1] | self-cleavage kobs at 160 uM GlcN6P [2] | self-cleavage kobs at 640 uM GlcN6P [3] | self-cleavage kobs at 2500 uM GlcN6P [5] | self-cleavage kobs at 10000 uM GlcN6P [4]

G7U U45G
< 1e-05 s⁻¹: self-cleavage kobs at 40 uM GlcN6P [1] | self-cleavage kobs at 160 uM GlcN6P [2] | self-cleavage kobs at 640 uM GlcN6P [3] | self-cleavage kobs at 2500 uM GlcN6P [5] | self-cleavage kobs at 10000 uM GlcN6P [4]

G7U U45C
< 1e-05 s⁻¹: self-cleavage kobs at 40 uM GlcN6P [1] | self-cleavage kobs at 160 uM GlcN6P [2] | self-cleavage kobs at 640 uM GlcN6P [3] | self-cleavage kobs at 2500 uM GlcN6P [5] | self-cleavage kobs at 10000 uM GlcN6P [4]

A6U C16A C34A G38C
< 1e-05 s⁻¹: self-cleavage kobs at 40 uM GlcN6P [1] | self-cleavage kobs at 640 uM GlcN6P [3] | self-cleavage kobs at 10000 uM GlcN6P [4]

G7A C8U
< 1e-05 s⁻¹: self-cleavage kobs at 40 uM GlcN6P [1]

G7A C8G
< 1e-05 s⁻¹: self-cleavage kobs at 40 uM GlcN6P [1] | self-cleavage kobs at 160 uM GlcN6P [2] | self-cleavage kobs at 640 uM GlcN6P [3] | self-cleavage kobs at 2500 uM GlcN6P [5] | self-cleavage kobs at 10000 uM GlcN6P [4]
